One substance from patent US20090214508A1 can be followed below.

The target of this assay is FLAG-tagged R2FasL (pFLAG-FlkFasL; FlkFasL with an N-terminal FLAG epitope tag) (mouse; human) (UniProt P35918). Briefly: cell-based or functional assay.
FLAG-tagged R2FasL (pFLAG-FlkFasL; FlkFasL with an N-terminal FLAG epitope tag) (mouse; human), sequence (P35918 other isoform, or with tags, fused parts or gaps): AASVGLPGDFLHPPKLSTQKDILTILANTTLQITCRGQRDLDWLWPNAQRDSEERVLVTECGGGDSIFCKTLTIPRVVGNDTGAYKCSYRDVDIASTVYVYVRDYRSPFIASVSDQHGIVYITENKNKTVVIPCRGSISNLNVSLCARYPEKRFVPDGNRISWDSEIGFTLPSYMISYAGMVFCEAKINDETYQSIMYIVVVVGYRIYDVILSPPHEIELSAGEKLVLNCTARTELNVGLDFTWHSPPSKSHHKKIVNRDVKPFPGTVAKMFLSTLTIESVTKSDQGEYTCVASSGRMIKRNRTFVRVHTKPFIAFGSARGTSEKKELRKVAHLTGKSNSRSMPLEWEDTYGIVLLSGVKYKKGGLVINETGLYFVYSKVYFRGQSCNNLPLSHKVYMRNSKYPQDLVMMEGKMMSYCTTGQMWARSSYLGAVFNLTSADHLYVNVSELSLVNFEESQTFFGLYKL

As to “recombinant human VEGF-165 (from UniProt P15692 27-191) (ligand)”, the ED50 (viability of Jurkat E6.1 cells, resazurin assay) lay within 20 to 200 pM.
